In the domain aggregation screens of Martell et al. (2025):

Test: soluble fraction after stress (log2 fold change); higher = more stays soluble; pooled small domains, quantitative proteomics
Details: stress: 75 degC
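Further: 20 min heating vs room temperature control held 20 min.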

Sequence | soluble fraction (log2)
HMRHDSEGYYRLIGVPPDADDAELKEAAKKRLMEAHPDHGGSEDEFVEVYRAYRTLTDPSARAEYDARP | 0.28
HMRHEDLSPAQKAAALVVAVGSENAAQVLRHLSEEEVEILAGEVARLGEVDPDVVDSVMREVYEQMMGH | -0.642
HMRHKSNRRLTAAHQIEQQIQKLLMENTMEAKELKESLNFAAKDIDTVLSWLVDKDKVRINAINQYYWT | -0.434
HMRHRITEKDKQFRIGQQVWHSEYGKGMVLSVDGIGSSARLTVSFVSGKLAKIIGTFVSTEP | -3.47
HMRIETLESLANRLAYKAYRTGRKVELEPMNPFERRVIHTALQNSKYATTESEGEDMNRHIVIVPKEGG | -0.152
HMRILGIDPGSVVTGYGVIDKSGNYLRHVLHGEIKPHKGYLLSEVLMDIFSKLSAVIVETNPQSV | 0.271
HMRINIVKSKNAEQLYIIHSYRINGKNTSKIYKKLGTMADLLPLHNHDRDQVLAWAKEQARLATEQYDQEN | -2.79
HMRIQLNFSDQLLDDVMSEALKHIDRKSQEHHIEKQMDDEFMLVYIDARLIIQVIVNIINNAIKY | 0.168
HMRITEGEIVEIQEGDNRALVGVGEKLEGIISLDEIRGADGKLLFNVGDKITVMVMGHYNERPK | 0.244
HMRITRREQQVLHLLAMGMTTREIAGHINLTERTVRNRISNLRDKLGAQTASQLLAKAVAQGLIEP | -2.69
HMRIVSGRESMLGRTVVVADWAGERGHVVVDGERWNAVASTPLAAGRRARIVGIDGLTLSVSPDDKP | 0.0293
HMRKAERHLLIKQVIDEFTIRTQEELLAKLSDYGVNATQATISRDIRDLKIVKAPDENGISRFVFF | -1.73
HMRKGDDRLRAQVDEYISKQGNNTFNYKQVAHAINATSPISQRAVALYLAELAFDGDLLETAPGRYKSPSR | -0.0636
HMRKIKDVLRLKLHAGLSHERVAASLNISKGVVAKYTSLAAAAGLDWPTVERLSEAALERRLV | -0.181
HMRKIKEVLRLKFETGFSHERIAAAVGVSKGAVTKYVQRAVAAGLGWPLAPERDDAALEALLFPH | 0.842
HMRKLDQRLAGLLLGKGRLVKATHQQLADELGSVREMVSRLLKGFAEHDLVRMSREQIEIVDAAGLRKLAD | -2
HMRKPDLTSVRTLIRSVSKLARHLKISPNGIYRWISVNRIPGAHVVKVANYYDVEIRDLVHLTGSD | -1.49
HMRLADHVVEKLLALVQDRGLQPGQKLPAERQLAEELGVSRTSVREAIQKLTSQGVLSARRGDGTYLQS | 0.0739
HMRLARPLTPTEERVLRLLASDMSNAKIGEVLGIRLPTVKSHVSHIMQKLGVTSRAKARTAAQQLGI | -1.21
HMRLDPENFYIRAVTYYRNGDWQRALSQLDEAIKLGTAIEYPALQARIYLEQGMRDEFIAASEK | -1.86
HMRLDVALRGVLLDGDPTQSRAFVLVSGTTSTYRLGETVQSAELVAINADTITLRTETGLHVIGFDGLI | -2.77
HMRLEYLVDVEEISIKEYLMLLGLSRRLARKIKLYGKMYINHQEAFNYHLVKKGDLLTIEFDE | -2.85
HMRLIDVFELSPKNRTVLQLYYYEGYSVTEISKILKISVNGVTSRLSRARSKLKLEMEAAENE | -0.577
HMRLMLITPTEFDEAAEIADNLKDRRAVLMNVEKTDNETARRLIDFLSGVVYALGGKIMRISAQAYVLT | 0.00546

Sequence | soluble fraction (log2)
HMRLPNGYGGVTKLSGRRRKPYMVRKTIGWHIDEKTDKKVQDYVVIGYAATKSEALQMLADYNNNPFDV | -2.93
HMRLSVVDLQDSLRGLEYPAGKGDLINHAREHNASADVIAVLEQFSERTYRSAADVGEEFGRV | 0.152
HMRLTIAQLSEKTGVPERTIRYYIDRGLVPSAHGERRGAWYDTVHLEPLLRIQQWREAGLSLEAIADLLR | -1.72
HMRMLLEERLDEIVKIVNERGSISNQELVKMFGASESTIRRDITTLANDNRVIRVHGGAMSVVS | -0.333
HMRMTLKNKVEDIVHILRKDKQTSLSAILGDNTDRIQTIVVFLAILELVKQHLIKTDQNANFGDINLFPED | -0.000181
HMRNLFWTEAQNAQNELNAMRINALTQSIRRIEPNFRGIPSLRDPNRPIPNEEVRDYENYLNRILP | 0.0375
HMRNMRKLWIARINAAARMNDISYSKLMHGLKLANVEINRKMLSEMAIDDPKSFTALVETAKKALNG | -1.49
HMRNPLYAQVADYVMQQIAAGTYRPHQAIPTEWQLAKKLEVSQGTVRKGLDELVFKQILYRQQGVGTFVAD | -1.31
HMRPAAELGLPHAPKHFIQYLTEDDRPQVLKDVDYEGGMGVSIGRLREDSIFDWKFVGLAHNTL | 0.0714
HMRPADTAAMLKYLSSGAVKGIGGALAGRIIEAFGDESIKVIEEDPARLATVKGITLKKAKEISEEMQRVN | -0.0169
HMRPEFVVALSGADLGKLHRLYELGEVLSREDDAEGVTHAVLRVPDKHEHAFHAEFPQARPM | 0.879
HMRPIDEVFGFFSRPENLTVITPSNLHFNILTPRPLEMKQGAVIDYTIKIFKVPIHWRTLITTYDPPFKFV | 0.059
HMRPILTLEEAKAKALAHAGLKADQVTFTEAKLDWDDGKQVYDIEFYTADFKEYDYEIDAKTGEVLEVDY | -0.466
HMRPKAIFVDVDDTLVRSVGQTRIPMPAVIAHIRRLHDAGHQLYLWSSGGADYARASAEELGIGQYFQAFL | -0.268
HMRPRWTEQEVERAKAIKMIYPNAYRLESSDVFVQVWSKEEILLAHVEVDMFPSLRPGQPVELDEIIG | -1.19
HMRPTAWDQISDWLDRHGSIANADVVRIAGLDTLKASKLLTTWREQGLLEPLPGRGKRNMAYVRAI | -0.887
HMRPTVNETQIREVFRSILGREVDPEGLRHYLGQAAKGWSIDQIRADVNNSQEAHQRRAELARQAEELK | -0.0425
HMRQDEKTLLYWIAGHLKREGRQITERSARHLVEQVGTDMENLSREMEKLIAYTMGRTEITGQDIDDI | -1.77
HMRQEIIEDSRKLLEESLKRYDLTYQEFIDTLKSKNMNVESTLINIIKNQSSLDLVLRNLGLIAP | -0.0293
HMRQISDPTALASMVDKVIEDNPSAVADYRRGESKALGFLIGRVMQSSGGKANPKMIRGLLVKNLES | -0.284
HMRQMIIIMQKQAAASSVAAVVEFIRSKGLREHISPGAERTIIGAVGDERVFLPQELESLPQVERAIRVL | -3.67
HMRQPAAVEYSTFLDWVHASQVERVVFEGDTIRGVRVTGEGFVTYSPETDNTALIGELKKSRVQISATAP | -0.508
HMRQQAFWALVPEERDVLDETGAPLFRIGPTAWALVIEDRGEVFVVRDEDGRVGYLHEVDGVTR | -1.57
HMRQQLAEILQKAVDNLPEAQRLVWLLRDKSDMTFKEIAEDLQLTEANVRVLLHRARLKLLAVINQYEE | -1.66

Sequence | soluble fraction (log2)
HMRQYKEMPYRLFLIHLGKGLVDEVELSDKAKLTGKLKNGKIFITDNPRTENFKEQLLLHDVKVKEG | -0.329
HMRQYTPEQLETAVLVLEEVRQGRRLDRALRSHPMPDGRLIAKHVLVAAYRKLVAEGTWKEDPEFLSRIRM | -2
HMRRADRLLQLIQILRRHRRPVTGDVMARELEVSLRTVYRDIATLTIEGVPIRGEAGVGYVLGEGY | -2.41
HMRRDEDLAHGRELLEKELRKQGLEVSENLKQDKLLEGAKRLGFLEAEDLVVAVGSGKVSAGMAVGRIIG | -0.114
HMRREKVLIKLAENLASKVLRTKKSIELEPMTPYERKVIHTTIENISGVKSWSEGENLQRHLIVALDE | -1.5
HMRRGPLTPDDFVLDMRVVHPRYGVGRIVALSGSGESRKATVDFGGSIGRMKFVLSQSPLKP | -1.34
HMRRHLLEMNDAIGRLGRLISEDPADRDVAEVIWAALRGMVMGQMIMNEPIDWQRERRTLVEMAIGR | 0.0485
HMRRIADVVPEQLTREEAEELLETLAEQGEIHEEQALLARYILEQSLQGVAPEVEPLIRAKLLAGILMVY | -2.18
HMRRKDIEFTNTMLEELYRHNSKWYDAVVRAYALEIPQKQIAEEMGIRLEAFQSMLFRAKKWIKTKYEADY | -2.83
HMRRNLSGEDTIVNRMAQWQYTQEQKNELHKMMDAGMPQEDILSVFYPEIKAEEMHRFLLAFQTAHNSG | -0.344
HMRRPRGVFNLVPRGFKRFGFITPDGGGEDMFAHLENVRAGHVVEDRNAVEYGIGRGPDGRDQAVDIVPVP | -0.0889
HMRRPTYPTVTTEAGMVVEDRSSGFVGDIVRWSFEGVTLRDRQQQLRHFTWKPGGFLINGTPVTLKRPE | -0.733
HMRRRVIGTLVMGDMSTDFKVLADGHTHRVLAAAISFHKAKPGDEVVILVPKSAPSKWAAVEHVMK | 0.033
HMRSAKLPYSEFLKLVDTDKVNDVSIVGRTISGHLDDGSKFSTYTPPNDPNIIEKLSSHNVIINSAPE | 0.0959
HMRSASFDIMSQKQSDATLGYERVYDTETNEVYKAYNGFTDDYDGERYKSISDNMYTKGISGYIEK | 0.39
HMRSDSEIKEDVLDELMWQPNIDETQIGVIVEKGVVTLTGFVDAYAKKTAALDAVKNVKGVKAVANDIEV | 0.131
HMRSFGRLRRRDSGRWEAAYVGPDARLYRAPATFEAKDDAIAWLSAERRMIELDTWIKPHDRASR | -1.78
HMRSGFAFSEEEIKHLDNIVSPLLIKGQSIHHISIFHKDEVMMSERTLYSYVNNGLFSARNIDMPRTVRMR | 0.476
HMRSISVEMDGKEYLIPTVSENGKVLSDDDAVKQFKKTGKHLDVFDSPEDATAYARQLHEDQESFYA | 0.231
HMRSKTDLVYEEIKKLILRGELSSDTPISENHLARRFEISRTPIREALKRLHIEGFVRIIPNHGVFVR | -2.15
HMRSLAVGNVVSEEGKPSYLLLDSKRTMLFSENSIPSLYLEDGRRVIVNYTLLDEDYQGYDFRIHVNDIDT | -0.00205
HMRSNADALIGRTARVSQTIVENGFGRVALDGDDWKAQAADGSRIEEGQNVIVKDRDSIILTVEKE | 0.243
